Biological target: CFF-Myc (UniProt P01732)
Test: co-IP

HA-TNPO1 (from UniProt Q92973 1-898) (natural protein)
fold more TNPO1 co-IPed in the presence of Rab8-T22N than -Q67L or -wt: 3 fold

From publication doi:10.1101/059451
